Laboratory results published in the DeepSol protein solubility set.

experiment: soluble on expression in E. coli; label from the status in PepcDB or PDB records

**Q.** With “MGSDKIHHHHHHHTDKAEFLDFSNLTQYRQDVKTLASDAFEGRAPLSKGETLTLDFLVNAFKEMGLAPGFGDSYLQAVPMAKITAKQDMQLTIGALKFTHGKDFTARSQQIKPHIALNNSEVVFVGYGINAPEFGWNDYAGIDVKGKTVIMLVNDPGFATQDNKRFKGNAMTYYGRWTYKYEEAARQGAAAVFIVHETAPAGYGWGVVENSNTGSKFTLVDDNNNLSQIAVMGWLQHKATQQIFATAGLDFDSLKLSTHKAGFKTVDLNLSAKLNLDNSIEMAKSHNVLALLPGATEFDGKRNPQQDELVVMHAHWDHLGSKTHQDGSQEIFNGAVDNASGTAGVLALARAFKAKASVTPFKRSILFSAFTAEETGLIGAQYFAQNPSVPTKNIAAFLNIDGMNVNDGVSYILQYGQGVSELEDYLEDAAKAQQRTVKADPLPQNGLMFRSDHFALAQEGVPGLLFMSLGDTDPNYIDAKYHKEADDYDANWSLGGVSQDLSLIGSILARLANNSDWPKWLEDSDFKTRRSEDNR” as the sequence, how does the “soluble on expression in E. coli” value read?
**A.** not soluble

**Q.** Which “soluble on expression in E. coli” value does the source give for “MGSDKIHHHHHHKESGSLLNLLTDAEIERTEKIVISGNGLEEKDFAVLKAMLIRHALREVDIENTSTRAITERAFEGCSNLSAIKLPKYLVNTGWYAFEDCSGLMDIELPVSVETIANSFRGCSSLTSITLGRRVKSLDSQSFYLCSNLREVHCKGSIPPSCKQDSFKGLYETCTLYVPEGCKRDYTFADGWLNFGNIREEYVEPALSLRVNLEGGTFAWQLYPLYDGNGGIIVNHFYPGQDYLIDVEKGETIVFHIAEENTYFSNWKIDTILLNGEDITSQVTENDLLYLNIDRDSKLEIVMKDLSVTSNDVIENPQDIKISTLDNKVLIQNITTGERVNVYNVLGVLVHSVVVEAMDYEVQLPKGEIYLIQIGKKTVKLKL” here?
**A.** not soluble

**Q.** Which “soluble on expression in E. coli” value does the source give for “MGSDKIHHHHHHLEYVIEMLNIRKEFGSFVANDNITLQLRKGEIHALLGENGAGKSTLMNVLFGLYQPEAGEIRVRGEKVNITSPNVANDLGIGMVHQHFMLVQNFTVTENIILGAEPKAGLKIDRAAAREKVRQISEQYGLAVDPDAKIEDISVGMQQRVEILKTLYRGADILIFDEPSAVLTPQEIKELIQIMNRLIAEGKSIILITHKLKEIMEVADRCTTIRRGKYIGTVDIDETMTQSRLAEMMVGREVNFNAEYSKATPQELVLDIKDLVVKDSRGIKAVDGLNLDIRAGEIVGIAGIDGNGQTELIEAITGLRKADSGEIFLNNKSIKNLKPRKVTEAGVGHIPQDRHKHGLVLDYSIGHNMVLQTYYQKPYSKAGIMNYGQVMDKAKTLIEKFDVRTPSPETFARALSGGNQQKAIIAREVDRSPDLLIAAQPTRGLDVGAIEFIHEQLVLEREKGRAVLLISFELEEILQVSDRIAVLYEGRTVAFLDPKETNEIELGFLMAGGKKEEVGRS” here?
**A.** not soluble

**Q.** With “MGSDKIHHHHHHLFNYFQLNDPKDFKHLLNMAGQDILINGKPARALITNTNLTESKDNRNITTLENIESGYLIDYDDGKWLVISEVSGKRYNKYKGIMQKCHNTLTVNIAGILHRVPYVVTNKVNLNIDVTYYLTVLENEIYILVANNTINSNIQLNDIYKIGRFNYKVISMDDISRPGLLLMKMKYSEEGQVLPNYSITILNGDTLTTDTATPVQLNVEQKDGETVLTNPLPMVFTSSDISIATVDSTGMVTPVSVGNVTITVSFESDTTVNDSIVITVEEVEVPETYTLELIGDTEIKQNQTKTYTAVKKNGLGDIVEGATFDFSIDPETTPADKYTLTVLDNTQCSIKANGATYYINLIATDRTDNSLTVSKRIWLKPLF” as the sequence, how does the “soluble on expression in E. coli” value read?
**A.** not soluble

**Q.** Which “soluble on expression in E. coli” value does the source give for “MGSDKIHHHHHHLKALVVGLGSIGVRHLNNLHALEVRELGVVRSRNFPPPTEIVPKDIAVFQDIDLALSRKFDLVVVANPTSLHLETLIKALRAGSHVYVEKPVAHEKRRLSELTRYVSLDGPRVLVGCQFRMHPGLRKIEGWIRQGKLGKIHSVQVDLGEYLPGWHPWEDYRQSYAARADQGGGVVLTLIHELDYLHWLFGKPKSVFAIGGHRTSLDITAEDTALITFETEQDICVQLRMDYWRKPPVRHMNIVAENAIVDWDYPTRLTTLRQNGQVLDEMVLVPSWDRNELFLSMMKEFIEGIPRGSIPRVTLRDGIEVLKTALAVKKSLQTHRKVAL” here?
**A.** not soluble

**Q.** For “MGSDKIHHHHHHLLKSSSTVHKGADYWTKRISDQEMPALCSTVRELEKLAKDDVSSLAILGRSVMHDNALTSRILRVANSATYNKGINHVSTVSRAAVMLGFDTLRNICITARLLSSLLENKNLSPNVYQRLLKLMAQSFQAAMLARMMMTGHDEKLREEVFIASLLYRIGESAFWSTGGSFSDALDQKLRDSDSEQDPQAIVRDILGTSFSQLTQNIARSWGLGEVLLKSLSHPDERTPEIRCIALADKLAQLLIEPAEDPNEFAERLKQTADMLNIEVSEFRQKVVDCTKATQKLAIDYGAKVLLDFLPKSADVKASVDQEAKPLVVRASDAAIQLKKLRELTGYALTKTDFNQVMLTALEGILSGVGVDRCGVLLLSPNRQLLQPRIMLGDEAEAMKREFIISLDETMSIFSQCVERKTPFWVADPNAKEWQKSINPALKTKLSKTGFFLAPVSIDTRVIGVFFADRSHSGRSFEPQDYDNFTHFTQLANICFGVSVK”, which “soluble on expression in E. coli” value is on record?
**A.** not soluble

**Q.** Which “soluble on expression in E. coli” value does the source give for “MGSDKIHHHHHHLNLIWTNLRVPVEEDERQLPLMIARKLKVSQQSISNLRILRRSVDARKKPQLLFSYTLGFSLDIPYKEVNRVLHRVADLKPEPQIMPRPFMKPEKSLKHRPIVVGAGPAGYFAALTLAKGGYAPLVLEQGDDVETRSLKVENFWRTGQLDTESNVQFGEGGAGTFSDGKLTTRIADPRITEVLETFVEQGAPSEILFLAKAHIGTDILKIVTQRLREKIQSLGGEVRFRAKLTGLRHQNGKLVGVEVNHQEVVPAEAVILAIGHSARETYRLLLAQGVHLEQKAFAIGLRIEHPQKLINTSQYGVEFHPKLGPADYQLTYQDTTTGRGAYAFCMCPGGKVVAAASDLERLVTNGMSEYRRDTGIANSALVVTVGKGDFQREHPLAGVEFQEYWEHQAFLAGDRDYKAPAQSVRDFLAKRVTGDFPLPASYTPGIQPVELHRVLPQAVGDVLDRALLSFERKIQGFAGEMGTLTGIETRTSAPVRITRDKMGEALHIQGLFPAGEGAGYAGGIMSAAVDGIRSAEGIMAQYNPAD” here?
**A.** not soluble

**Q.** With “MGSDKIHHHHHHLQKYLSILRNSPFFKGLADNEILSILHCVNATTISKKRDSYIFRAGDITEVMGIVVSGCVLIIQEDIWGHRNILSKCHAGDFFGEPYAASQRAVLNISVVADEDCEIILLNVKRLLITCPTACEHHQKLIRNLVSVLANKILILNDKITHVGKRTTRDKLLSYLSAESIRHSSLSFDIPFDRQQLADYLCIDRAAMSTEISKLQKEGFIKTNRNHFELQLSIIKKKNYTI” as the sequence, how does the “soluble on expression in E. coli” value read?
**A.** not soluble

**Q.** With “MGSDKIHHHHHHLSVRATISDSKSDFHKEFPYVIPAIYRKLADELLVELHLLSHQKNFKKDSIFSTGLKEVFSKFTSGYKPSEHATKLFDAICNCNGFNPTEINNSSEQLVSNAKSFTKEDLNSFLSKTNNDNKGYDYYSRINAIGIYKLVSEMPLFKEVKEEDLNKEINDISKSLGYQYSRVEKDISMYKSNIEKMKQALEIIALNLKTK” as the sequence, how does the “soluble on expression in E. coli” value read?
**A.** not soluble

**Q.** With “MGSDKIHHHHHHLTQPITDWYKSGTGSTPVLKFQFATEKLLRPSGGGPSRRGTPIREIPMNLHKLLSDREQDGRPIRVGLIGAGRYGTMYLAQANNIPGIHVVAIADINVKRAEGAFELVGWPKNQIAPDIATALRDRSTTIVANADELFDVDIDVIVEATGNPIVGVKHALRAIETKKHIIMVTVEADALAGPALARRAEAAGVVYSMAYGDQPALIMELVDWARTSGFDVVCAGKGAKFLEHYHEMNPDNVWENWEFSKELTDSGQLNPNMHTSFRDGTKASIEMAAVANGAGLVPSDTGLTFTPGDVEEIATICRPADAGGVLAHEGTVDVMSSVKRDGTWIPHNTQEGVFVVVKATNAYVSGCFTEYPWHPDPTGQYAALYRPYHYVGLELNMSIANAALRGISTGSPIGFFGDVVATAKKNLKAGEFLDGEGGYTVWGQLVSAKHSVATGALPVALAHHVELRNDVAKGGIVGWDDVIMDDSLSQALEVRRETEALVAEFALNA” as the sequence, how does the “soluble on expression in E. coli” value read?
**A.** not soluble

**Q.** Which “soluble on expression in E. coli” value does the source give for “MGSDKIHHHHHHMADAATLKARVAQIFREAWTTREGQKVPDPGDVKLGNDAVEFEKATILYADLSGSTDLVNAHGWTFAAEIYKTYLHCAATIIRDEGGSIVSYDGDRVMGVFIGDPQTTPAARAGLKINYAVQEIINPALKAQYPSNTFVVRQVVGIDTSPIRAARTGVRGDNDLVWVGRAANYAAKLTELKLDERTWITKEAYDRLTDDAKFGGANRTLMWKFYRWSQMNDHPIYGSTWRWSL” here?
**A.** not soluble

**Q.** Which “soluble on expression in E. coli” value does the source give for “MGSDKIHHHHHHMADAPIDIFQSILSRKSIRAFTDQPVTQETIREILKLAARAPSGTNLQPWQVIVLTGKILQKVGQELSQLVLSGIKGEREYHYYPRQWREPYLSRRRKVGLDLYKSLGIQKGDQEKMLHQKAKNFLFYGAPVGLLFTIDHDMEMGSWLDLGMFMQTIMLAARGFGLDTCAQAAFADYHKQIRSLLSVPSDRHIICGMALGYRDMNAPENNFETEREPIDNFVHFIKSYP” here?
**A.** not soluble

**Q.** Which “soluble on expression in E. coli” value does the source give for “MGSDKIHHHHHHMAENNTPQETEQDQEARFREEFEVGGKDRQLSEEEQLEQLGSYIDAHYPVPDFTPPWAGGAGDPDPADRYIAHLPDRTTHTAMIMLGSGLDHSMPGVAFIGGVSVDDVPEVGGAIFHPSNPTGRWAVSFHSGGWWRGSGDALEFQWRPEVAAAAELSGTTILDLDYPLAPGHNLHDMNEVVGKAVGYARHHNPVSITGWGYSSGAALAAINASLFDALVLTFPDLGSVEKLPAEIRGDAVVPAAAAWPTTFVQIAAQDEIAERPGELGDATVKEYVSRHRISTPKVAREKITDVAEFLKTVC” here?
**A.** not soluble

**Q.** Which “soluble on expression in E. coli” value does the source give for “MGSDKIHHHHHHMAESKTKRLLYFMSELEKGNQINKEEYIAKFNISDRTMKEDVSELKTNLKELRPNMQIKFSRKHACYFASYEQGYGNLKYNQAVILSKILLESRALRKEEVAEIINIFVERAVDDKERTRIKKLTQFELNSYQELKFYQKSNKSILPTISAIFDAIVDQRPLAFSYTKPSSKVEEYIVLPISVIFDNHYFYCISYKLDNCFQSRYELQELRYFRVDRFKTIHKSISNSAFALTEEEQERLITDEQVRYQTFSMLSDQKWVRIQFRYTGQFRDVLEADIPKLKMINELEEGIIYEIETLSLLGFQKYIQRFDGDFVFLNIKSIKK” here?
**A.** not soluble

**Q.** With “MGSDKIHHHHHHMAEWAGGQGTQEQAVDKGPVTTDRPRPDRISPMNTARRLLRYLGHQRLPHVVVQIGCEILGAQRGALYLLDQNQEVTLIAQYPDDKDVQVPDDLDEARLSWHTLHDFLPQLVDCAHDHEARFHYCSGGDCWLTLSIPLQWEGQNIAVVQLSYKPDVTIDQTSMLGLVYEYAELAALTLVQHWRCIHPAHSSGTQAVPPSSLTNDYSFSSGVSLALAVSEAERARIARDLHDGARSAILGVQLHLEALRLACMQGDSLAIQDHLARGRAALDAIEQELSHIVRDLYPPQVGEADFPTVLVNLSERWSAATRIPVEYAFAPNIPVLETAQVIALYRIVQEALANCNRHAQASRVTISLACADDTLLLTVADNGRGGANLRGGGIGLLSMAQRAHAIGASFHIDSPPDQGTRIEVKLPLRRREPDVHVCSGDCHEGADE” as the sequence, how does the “soluble on expression in E. coli” value read?
**A.** not soluble

**Q.** For “MGSDKIHHHHHHMAFTPFPPRQPTASARLPLTLMTLDDWALATITGADSEKYMQGQVTADVSQMAEDQHLLAAHCDAKGKMWSNLRLFRDGDGFAWIERRSVREPQLTELKKYAVFSKVTIAPDDERVLLGVAGFQARAALANLFSELPSKEKQVVKEGATTLLWFEHPAERFLIVTDEATANMLTDKLRGEAELNNSQQWLALNIEAGFPVIDAANSGQFIPQATNLQALGGISFKKGCYTGQEMVARAKFRGANKRALWLLAGSASRLPEAGEDLELKMGENWRRTGTVLAAVKLEDGQVVVQVVMNNDMEPDSIFRVRDDANTLHIEPLPYSLEE”, which “soluble on expression in E. coli” value is on record?
**A.** soluble
